The values that follow come from the supplement of paper PMC9170038.

For the data set, the system named is K4 kissing-loop RNA reporter. Nature of the data set: apparent KD of K4 kissing-loop reporter; higher = weaker reporter binding. To be noted: Eterna round: R107. The method, then: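 RNA-MaP round R107: designed RNA switches with theophylline, tryptophan, arginine or FMN aptamers are transcribed on-chip within common flanks. They are titrated with a labelled K4 kissing-loop RNA reporter in RNA-MaP buffer (100 mM Tris pH 7.5, 80 mM KCl, 4 mM MgCl2), without ligand or with the indicated ligand. Median apparent KD per design.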

Setting [1] is: input ligand: theophylline 20 uM.
Setting [2] is: input ligand: tryptophan 2.4 mM.
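Note: bound reporter read as fluorescence of individual clusters on recovered sequencing chips by microscopy, with normalized cluster intensities fitted with a binding model.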

Regarding “AUGCGACGUGCGGCCGCCACUCGGAUGCGAGUGAUGUUCGCGGGACGGACGCAAGUCCGUCAUUCGAGGACCGGGCAUCGGUGUA [#2 Same State - Tryptophan B Attempt #2 (HarryS)]”, the “apparent KD of K4 kissing-loop reporter” value is 555 nM (input ligand: FMN 200 uM); 462 nM (input ligand: arginine 13.2 mM); 636 nM (input ligand: none); 512 nM under setting [1]; 139 nM under setting [2].
For “UGAUACCAGACGGCCGCCACUCCCGUAAGUCAAAGACUUACGAAGAGGGUUUUUCAGUGAUGUUGGAGGACCGGGUCUGGUAUCU [FiskerMod 17 - Jieux - Exclusion - Tryptophan B]”, in that order: 516 nM, 420 nM, 545 nM, 506 nM and 824 nM.
Take “UGUCAUUGGUCUGAUACCAGUUGAUAAACUGGAGUGAUGUUCCUCGACGAAUACGUCGACAACCCUUGGCAGCAGACCGAUGACU [TheoBS 14 #SwitchBubble 13 #StaticStem]”: the “apparent KD of K4 kissing-loop reporter” value runs as follows: (input ligand: FMN 200 uM) 683 nM; (input ligand: arginine 13.2 mM) 627 nM; (input ligand: none) 713 nM; under setting [1], 354 nM; under setting [2], 607 nM.
For “AGACUUCACCGAAGGAGCGACGUAGCCUAGUGAUGUUAGGCACGAGAGAAAUCUCGUAUACGUCAGGUAGGUCGCGGUGAAGUCA [Omei KL Arginine B SS C v1]”, in that order: 196 nM, 138 nM, 161 nM, 171 nM and 161 nM.
For “GCCGUACGCAUGGAUACCAGAGAUGUUAAUCUCGAUGCCAGUGAUGUUGGCUUUAGCUAUCUCCCUUGGCAGCCAUGCGUACGGC”, in that order: 1050 nM, 608 nM, 909 nM, 566 nM and 1000 nM.
For “CCAUCGCUAUUCGAUACCAGUCAUUUUUUAUUUUAUUUUUUUUUUGGAGUGAUGUUCCAAGACCCUUGGCAGCGAAUAGUGAUGG [whbob_SS_Theo_B_th78]”, in that order: 119 nM, 130 nM, 113 nM, 139 nM and 106 nM.
Turning to “UGGAGUUGACGAAAAGUCAACUCCUGAGAUACCAGUGACGAAAGUCACCCUUGGCAGCUCACUGGCAGUGAUGUUGCUAAAUAAA [KL-SSTheo-A2]”, the “apparent KD of K4 kissing-loop reporter” value was 57.3 nM (input ligand: FMN 200 uM); 51.4 nM (input ligand: arginine 13.2 mM); 122 nM (input ligand: none); 63.5 nM under setting [1]; 32.6 nM under setting [2].
For “CGCGCGCGUUUGAGAGGGUGCGCGCGAAGUGAGGAUAUUUAGGGAGAAAGAAGGCACUAUAAAAUAUAGUGAUGUUAUAUAAGGG [SSFMNA.G]”, in that order: 431 nM, 114 nM, 382 nM, 187 nM and 344 nM.
For “CAUGUGUCUAUUACGAUGGAUACAUAUACUGAGGAUAUCACAUUUAUGAGAAGGCAGUAAACUGCGAGUGAUGUUCGCAGUACGU [FMN A SS t8]”, the “apparent KD of K4 kissing-loop reporter” value is, setting by setting: (input ligand: FMN 200 uM) 159 nM; (input ligand: arginine 13.2 mM) 204 nM; (input ligand: none) 214 nM; under setting [1], 316 nM; under setting [2], 248 nM.
For “ACGCGCGUGCGCUGGAAAGCGCACGCGCGUCGAGGACCGGUACGGCCGCCACUCGCUCGCGCCGAGUGAUGUUCGGCCGGCGAAC [#2 SameState - Tryptophan_A Attempt #2 (HarryS)]”, in that order: 342 nM, 288 nM, 303 nM, 292 nM and 645 nM.
For “CCGGAUUAUGCGGCCGCCACUGAGAAAUUGGAGGUACGCCCUCCCGAUAGUGAUGUUAUCCAUUACAGGACCGGGCAUCUCCUCU [theeternabot_sameState_KL_Trp_B_23]”, in that order: 779 nM, 421 nM, 893 nM, 500 nM and 325 nM.
